Data as given in FireProtDB (doi:10.1021/bi00005a026).

B1: Subtilisin-chymotrypsin inhibitor-2A, P01053 (parent)
chain: MSSVEKKPEGVNTGAGDRHNLKTEWPELVGKSVEEAKKVILQDKPEAQIIVLPVGTIVTMEYRIDRVRLFVDKLDNIAQVPRVG

Variants of: B1
Settings: Hordeum vulgare, pH 6.3, Thermal, Fluorescence, phosphate 10 mM, reversible: yes, structure 2CI2, whole UniProt chain shown; for ddG of mutation (higher = less stable): 46.6 °C

Variant	ddG of mutation (higher = less stable) [kcal/mol]	Tm [°C]	change of melting temperature, mutant - wild type (higher = more stable) [°C]	unfolding enthalpy (van 't Hoff) [kcal/mol]
K37A	0.49	34	-12.6	27.2
V54A	0.63	43.8	-2.8	40.5
V54T	1.03			
L52A	2.37	37.5	-9.1	42.5
L52V	0.5	46.1	-0.5	37.3
I50A	2.12			
I50V	-0.08	48	1.4	50.9
E34A E35A	0.76			
V71A	1.95	29.8	-16.8	33.5
V39A	0.48	41.9	-4.7	30
I77V	-0.19	47.7	1.1	34.6
K44A		40.8	-5.8	24.6
I49V	1.11	39.4	-7.2	27.8
S32A	0.89	38.2	-8.4	35.4
K38A	-0.23	41.4	-5.2	34.8
K38G	0.97	35.8	-10.8	37.6
I40V	1.3	31.8	-14.8	26.3
F70L	2.11	32.5	-14.1	27.5
L28A	2.68	24.1	-22.5	34.6
S32A E34A E35A	1.67			
T23A	0.85	43.7	-2.9	
E34N	0.7	42.8	-3.8	36.1
